Positions count from the first letter of the chain named. Numbers in names are those of the source.
B1: rhRKIP C133S mutant, histidine-tagged (natural protein, human, UniProt P30086 1-187, looked up)
chain: MPVDLSKWSGPLSLQEVDEQPQHPLHVTYAGAAVDELGKVLTPTQVKNRPTSISWDGLDSGKLYTLVLTDPDAPSRKDPKYREWHHFLVVNMKGNDISSGTVLSDYVGSGPPKGTGLHRYVWLVYEQDRPLKSDEPILSNRSGDHRGKFKVASFRKKYELRAPVAGTCYQAEWDDYVPKLYEQLSGK
notes: human RKIP (PEBP1), cDNA GenBank NM_002567 in pET28B+, site-directed mutant; Same construct as m1 with the point mutation; source: E. coli BL21(DE3), purified (Ni-NTA)
B2: rhRKIP C168S mutant, histidine-tagged (natural protein, human, UniProt P30086 1-187, looked up)
chain: B1 chain with S133C, C168S
notes: as for B1
B3: rhRKIP Ser153 to alanine mutant, histidine-tagged (natural protein, human, UniProt P30086 1-187, looked up)
chain: B1 chain with S133C, S153A
notes: human RKIP (PEBP1), cDNA GenBank NM_002567 in pET28B+, site-directed mutant; Same construct as m1 with the point mutation; also called S153A; source: E. coli BL21(DE3), purified (Ni-NTA)
B4: rhRKIP Ser153 to glutamate mutant, histidine-tagged (natural protein, human, UniProt P30086 1-187, looked up)
chain: B1 chain with S133C, S153E
notes: human RKIP (PEBP1), cDNA GenBank NM_002567 in pET28B+, site-directed mutant; Same construct as m1 with the point mutation; also called S153E; source: E. coli BL21(DE3), purified (Ni-NTA)
B5: rhRKIP Ser153 to aspartate mutant, histidine-tagged (natural protein, human, UniProt P30086 1-187, looked up)
chain: B1 chain with S133C, S153D
notes: human RKIP (PEBP1), cDNA GenBank NM_002567 in pET28B+, site-directed mutant; Same construct as m1 with the point mutation; also called S153D; source: E. coli BL21(DE3), purified (Ni-NTA)
B6: rhRKIP C168A mutant, histidine-tagged (natural protein, human, UniProt P30086 1-187, looked up)
chain: B1 chain with S133C, C168A
notes: as for B1

Assays:
[1] = target: the molecule itself; test: non-reducing SDS-PAGE; purified rhRKIP in sample loading buffer without β-mercaptoethanol or boiling; Coomassie Brilliant Blue staining or anti-His immunoblot
[2] = target: the molecule itself; test: LC Q-TOF mass spectrometry; purified rhRKIP WT and mutant proteins in buffer at pH 7.4; peaks around 22 kDa (monomer) and 44 kDa (dimer)

| Protein | stoichiometry N [1] | stoichiometry N [2] |
| --- | --- | --- |
| B1 | 2 |  |
| B2 | 2 |  |
| B3 | 2 |  |
| B4 | 2 |  |
| B5 | 2 |  |
| B6 |  | 2 |
